Test results: article PMC11697113, “The Hsc70 system maintains the synaptic SNARE protein SNAP-25 in an assembly-competent state and delays its aggregation [image fx2.gif]” (The Journal of Biological Chemistry, 2024)

Target: T1, heat shock cognate 70 (Hsc70), human constitutively expressed Hsp70, wild type (human, UniProt P11142 1-646)
T1 construct: Hsc70, the human constitutively expressed Hsp70; also called WT Hsc70; His-Hsc70 (before cleavage); source: E. coli Rosetta (DE3), purified (Ni-NTA, TEV cleavage, second Ni-NTA)
Assay: NMR titration; methyl-TROSY (1H-13C HMQC) spectra of Ile δ1-13CH3-labeled Hsc70 (40 μM) without and with unlabeled peptide; 10 mM potassium phosphate pD 7.4, 5 mM DTT, D2O, 25 °C, 600 MHz
Settings: both partners purified

T1 sequence (P11142 whole entry): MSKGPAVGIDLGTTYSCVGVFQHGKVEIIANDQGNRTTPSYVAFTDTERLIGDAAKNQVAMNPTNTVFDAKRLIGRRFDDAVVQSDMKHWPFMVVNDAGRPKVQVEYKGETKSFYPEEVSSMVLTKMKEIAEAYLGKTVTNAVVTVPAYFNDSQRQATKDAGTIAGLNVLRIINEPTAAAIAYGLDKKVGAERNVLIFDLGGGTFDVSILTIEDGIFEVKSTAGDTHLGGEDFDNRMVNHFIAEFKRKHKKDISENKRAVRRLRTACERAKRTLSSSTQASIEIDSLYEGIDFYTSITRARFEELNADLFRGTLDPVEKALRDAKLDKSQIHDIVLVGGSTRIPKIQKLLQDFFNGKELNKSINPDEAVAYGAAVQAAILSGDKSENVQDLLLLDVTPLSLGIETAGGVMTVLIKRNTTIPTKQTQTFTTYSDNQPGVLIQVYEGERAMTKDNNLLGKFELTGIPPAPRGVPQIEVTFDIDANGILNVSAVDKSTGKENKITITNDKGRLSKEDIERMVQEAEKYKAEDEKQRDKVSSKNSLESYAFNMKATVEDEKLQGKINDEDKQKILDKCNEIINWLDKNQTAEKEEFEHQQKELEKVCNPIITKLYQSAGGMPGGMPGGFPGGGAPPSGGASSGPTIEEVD

Binder	binding result
EREQMAISGGFIRR (also called SNC peptide; LOOP-SNC peptide; source: synthetic peptide) [SNCP peptide of SNAP-25 (LOOP-SNC site)]	binds
RRMLQLVEESK (also called SNN peptide; source: synthetic peptide) [SNNP peptide of SNAP-25]	binds
